The text below walks through data of US8962344B2, “Membrane-coated particles” (Synamem Corporation, priority 2008, dated 2015).

Experiment [1] is described as follows: Labeled ligand binding to bare silica beads (control for non-specific binding). Particulars: silica beads devoid of membranes; FIG. 2C. The procedure:
(§1) The binding of transferrin to its receptor was studied for ligand/receptor interactions, present endogenously in membrane-coated particles derived from CHO cell membranes (Example 1). Freshly-prepared membrane-coated particles were resuspended in 1 ml of binding buffer (10 mM Tris-HCl pH 7.4, 100 mM NaCl). Beads were subsequently pelleted and resuspended in 1 ml of blocking buffer (0.1% w/v casein in binding buffer), and incubated at room temperature for 15 minutes with rotation. Beads were pelleted and resuspended in 980 μL of binding buffer. At this time, any inhibitors or antagonists (e.g. excess of unlabeled transferrin) could have been added for a pre-incubation step. ALEXA FLUOR® 488-conjugated human holotransferrin was added to the membrane-coated particles at a final concentration of 10 μg/ml, followed by incubation at room temperature for 15 minutes with rotation. Following the incubation with transferrin, the beads were washed twice with binding buffer in preparation for viewing using fluorescence microscopy (same microscope apparatus as described in Example 1). The accessibility of membrane proteins (in this case the transferrin receptor) to interact with various ligands and test agents (in this case transferrin) is shown by the results (see FIGS. 2A-2E).

The next experiment deals with T1, transferrin receptor (Cricetulus griseus, UniProt Q07891).
T1 construct: present endogenously in membrane-coated particles derived from CHO cell membranes; endogenous in cells; host or cells: CHO cell membranes deposited on silica microspheres
The experiment can be described thus: Ligand binding and displacement assay on membrane-coated particles (fluorescence microscopy). Also on record: species or system Chinese Hamster. The procedure:
as §1

T1 sequence (Q07891 whole entry): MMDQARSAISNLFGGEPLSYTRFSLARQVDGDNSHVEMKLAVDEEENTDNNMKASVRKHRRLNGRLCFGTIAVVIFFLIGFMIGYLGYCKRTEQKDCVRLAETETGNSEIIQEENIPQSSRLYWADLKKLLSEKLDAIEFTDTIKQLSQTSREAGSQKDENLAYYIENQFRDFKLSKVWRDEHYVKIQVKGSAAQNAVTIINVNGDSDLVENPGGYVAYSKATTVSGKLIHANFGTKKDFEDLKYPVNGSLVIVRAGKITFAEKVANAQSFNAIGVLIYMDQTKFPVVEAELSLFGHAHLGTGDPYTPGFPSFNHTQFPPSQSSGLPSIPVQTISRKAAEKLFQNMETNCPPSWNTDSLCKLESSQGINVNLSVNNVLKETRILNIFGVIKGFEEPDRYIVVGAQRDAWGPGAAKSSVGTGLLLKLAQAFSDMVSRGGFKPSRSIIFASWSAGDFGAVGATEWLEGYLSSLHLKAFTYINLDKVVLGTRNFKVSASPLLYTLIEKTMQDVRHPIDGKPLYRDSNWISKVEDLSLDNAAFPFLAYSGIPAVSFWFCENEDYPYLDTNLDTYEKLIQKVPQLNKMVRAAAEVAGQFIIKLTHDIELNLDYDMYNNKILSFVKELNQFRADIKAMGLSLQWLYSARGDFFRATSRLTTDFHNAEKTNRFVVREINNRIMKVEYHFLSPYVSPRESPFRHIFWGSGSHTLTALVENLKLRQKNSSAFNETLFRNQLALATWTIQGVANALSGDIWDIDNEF

As to “fluorescently-labeled transferrin: ALEXA FLUOR® 488-conjugated human holotransferrin, labeled ligand of the transferrin receptor”, in experiment [1], the “interaction of fluorescently-labeled transferrin with bare silica” value is reported as “does not interact appreciably”. For the same substance, in the experiment with transferrin receptor (endogenously-expressed transferrin receptor, CHO cell membranes on silica beads, 10 μg/ml, room temperature, 15 minutes, FIG. 2A), the “binding of fluorescently-labeled transferrin to the membrane-coated particles” value is given as “binds efficiently”.
As to “unlabeled transferrin: unlabeled transferrin used in excess as competitor of labeled transferrin binding”, the “competition of labeled transferrin binding” value with transferrin receptor (100-fold molar excess of unlabeled transferrin, CHO membrane-coated particles, FIG. 2B) is reported as “readily competed away”.
